For test [1], the target named is T1, human RANKL (receptor activator of NF-κB ligand) (human, UniProt O14788 140-317, limits assumed).
T1 construct: also called hRANKL; hRANKL native trimer
T1 sequence: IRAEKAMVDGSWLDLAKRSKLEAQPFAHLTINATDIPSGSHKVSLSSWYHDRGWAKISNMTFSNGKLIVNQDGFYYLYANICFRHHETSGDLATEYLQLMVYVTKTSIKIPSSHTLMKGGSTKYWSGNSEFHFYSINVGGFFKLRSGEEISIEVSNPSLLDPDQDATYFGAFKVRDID
Description: SPR (BIACORE), purified antibody, 37°C. (In general: In SPR one partner is held on a chip, and binding of the other changes the refractive index at the surface.)

A further test addresses T2, penta-his-tagged hRANKL (human).
T2 construct: also called his-hRANKL; not shown: penta-his tag
T2 chain: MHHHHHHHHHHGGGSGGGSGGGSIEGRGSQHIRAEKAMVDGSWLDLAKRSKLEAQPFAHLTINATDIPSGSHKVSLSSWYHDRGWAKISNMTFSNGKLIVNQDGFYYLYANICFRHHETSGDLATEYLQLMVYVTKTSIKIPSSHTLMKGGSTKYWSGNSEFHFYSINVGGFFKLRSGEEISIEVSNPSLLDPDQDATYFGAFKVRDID
Description: competition ELISA: 150 pM his-hRANKL pre-mixed with antibody, free RANKL detected on hRANK-hFc plate. On the procedure: (§1) Briefly, hRANK-hFc protein was coated on a 96-well plate in PBS buffer overnight at 4° C. at 2 μg/ml, and nonspecific binding was blocked with BSA, to form a hRANK-hFc surface.
For orientation: An ELISA detects its analyte on a solid surface through an enzyme-linked reagent.

In test [2] the target is T1, human RANKL (receptor activator of …). Description: cell-based or functional assay.
Test [3] shares this target. Kind of test: SPR (BIACORE), purified antibody, 25°C.
Test [4] has as its target T3, penta-his-tagged monkey (Macaca fascicularis) RANKL (Macaca fascicularis, UniProt O14788 125-317 (human entry)).
T3 construct: also called his-mfRANKL; mfRANKL; not shown: penta-his tag
T3 chain: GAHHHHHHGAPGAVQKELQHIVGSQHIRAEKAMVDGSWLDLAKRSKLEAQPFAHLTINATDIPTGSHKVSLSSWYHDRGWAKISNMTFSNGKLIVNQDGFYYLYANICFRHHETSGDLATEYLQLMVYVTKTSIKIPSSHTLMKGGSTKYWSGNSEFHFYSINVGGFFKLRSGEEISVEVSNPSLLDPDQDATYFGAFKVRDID
Kind of test: competition ELISA: 150 pM his-mfRANKL pre-mixed with antibody, free RANKL detected on hRANK-hFc plate. On the procedure:
as §1

Test [5] has as its target T1, human RANKL (receptor activator of …). Kind of test: SPR (BIACORE 2000), antibody captured on anti-hFc, hRANKL injected. The method, then: Equilibrium dissociation constants (KD values) for antigen binding to the selected antibodies generated by hybridoma cell lines described above were determined by surface kinetics in a real-time biosensor surface plasmon resonance assay (BIACORE™ 2000). Each selected antibody was captured on a goat anti-mouse IgG polyclonal antibody surface created through direct chemical coupling to a BIACORE™ chip to form a captured antibody surface.
Each selected antibody was captured on a goat anti-hFc polyclonal antibody (Jackson Immuno Research Lab) surface created through direct chemical coupling to a BIACORE™ chip to form a captured antibody surface (Table 2).

Test [6] deals with T4, hRANKL captured on an anti-penta-his antibody surface (human, UniProt O14788 136-317).
T4 construct: also called captured hRANKL surface; not shown: his tag implied by capture on anti-penta-his
T4 sequence: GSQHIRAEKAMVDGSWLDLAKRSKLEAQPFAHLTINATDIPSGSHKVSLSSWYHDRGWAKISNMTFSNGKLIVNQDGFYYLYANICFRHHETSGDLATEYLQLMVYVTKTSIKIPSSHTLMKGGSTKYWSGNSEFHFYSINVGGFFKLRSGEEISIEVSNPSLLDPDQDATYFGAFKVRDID
Kind of test: SPR (BIACORE), hRANKL captured on anti-penta-his, antibody 25-100 nM injected, 25°C.

Test [7] addresses T4, hRANKL captured on an anti-penta-his …. Kind of test: SPR (BIACORE), hRANKL captured on anti-penta-his, antibody 25-100 nM injected, 37°C.

Where a chain is given by its changes, count along the chain named. Several values for one entry are separate records, joined by “and”; a condition that tells them apart may be missing. Equal entries are not always repeated.

B1: H4H002P (antibody, V domains shown)
VH: QVQLVESGGGVVQPGRSLRLSCAASGFTFTGYGMHWVRQAPDKGLEWVAVISYDGTNKYYVDSVKGRFTISRDNSQNTLYLQMNSLRAEDTAVYYCAKCLSGTYWGYGMDVWGQGTTVTVS
VL: DIQMTQSPSTLSASVGDRVTITCRASRSINSWLAWYQQKPGKAPKLLIYKASSLESGVPSRFSGSGSGTEFTLTISSLQPDDFASYYCQQYNNYSWTFGQGTKVEIK
notes: Purified antibody from clone 1F8
The term Kd denotes a measure of binding affinity in units of concentration. By IC50 is commonly meant the concentration that inhibits the measured activity by half. As for B1, the Kd was 0.0531 nM in test [1] and 0.262 nM in test [3]. Also, the concentration for half-maximal inhibition (IC50) came out at 0.165 nM with penta-his-tagged hRANKL and 1.36 nM in test [4]. Besides, the “IC50, hRANKL-inducible luciferase activity in HK293/RANK/NFκB-luc-eGFP cells” value (from here on “IC50 … in HK293/RANK/NFκB-luc-eGFP cells”) in test [2] came to 0.214 nM.

B2: 2H10 (antibody, V domains shown)
VH: QVQLVESGGGVVQPGRSLRLSCAASGFTFSGYGIHWVRQAPDKGLEWVAVISYDGTNKYYGDSVKGRFTISRDNTKNTLYLQMNSLRTEDTAVYYCAKSLSGTYWGYGMDVWGQGTTVTVSS
VL: B1 VL with D1A, R27Q, S28N, N30G, S31N, E55Q, S56N, S85T, Q90R, N93S
notes: From direct isolation of splenocytes; captured on anti-hFc; also called H4H009N
Take B2: in test [5], the Kd was determined as 0.0158 nM.

B3: 2H12 (antibody, V domains shown)
VH: QVQLVQSGGGVVQPGRSLRLSCAASGFTFSGYGMHWVRQAPGKGLDWVTVISYDGSNKHYADSVKGRFTISRDNSKNTLYLQMSSLGPEDTAVYYCAKSLSGTYWGYGMDVWGQGTTVTVSS
VL: B1 VL with D1A, R27Q, S28N, N30S, I75V, S85T, N93R
notes: From direct isolation of splenocytes; captured on anti-hFc; also called H4H010N
On to B3, for which, in test [5], the Kd came to 0.0331 nM.

B4: 2E10 (antibody, V domains shown)
VH: QVQLVQSGGGVVHPGRSLTLSCAASGFTFSGYGMHWVRQAPGKGLEWVAVISYDGINKYYADSVKGRFTISRDNSKNTLYLQMNSLRAEDTAIYYCAKCLSGSYWGFGMDVWGQGTTVTVSS
VL: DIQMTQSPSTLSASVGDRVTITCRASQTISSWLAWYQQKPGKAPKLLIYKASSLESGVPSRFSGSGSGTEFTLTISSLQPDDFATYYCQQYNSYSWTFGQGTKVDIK
notes: From direct isolation of splenocytes; captured on anti-hFc; also called H4H005N
As to B4, in test [5], the Kd was found to be 0.0172 nM.

B5: H4H009P (antibody, V domains shown)
VH: B1 VH with T30S, M34I, V61G, S75T, Q76K, A88T, C99S
VL: B1 VL with R27Q, S28N, N30G, S31N, E55Q, S56N, S85T, Q90R, N93S
notes: Purified antibody from clone 2H10
As for B5, the Kd in test [1] came to 0.0248 nM; in test [6], 0.376 nM; in test [7] it was 0.881 nM; in test [3] it was 0.173 nM. For the same molecule, the figures for the T1/2 in test [6] and in test [7] were 60 min and 7.8 min, respectively. Further, the 50% inhibitory concentration (IC50) worked out at 0.06 nM in the test with penta-his-tagged hRANKL and 0.345 nM in test [4]. Also, in test [2], the “IC50 … in HK293/RANK/NFκB-luc-eGFP cells” value is 0.045 nM and 0.084 nM.

B6: H4H010P (antibody, V domains shown)
VH: QVQLVESGGGVVQPGRSLRLSCAASGFTFSGYGMHWVRQAPGKGLDWVTVISYDGSNKHYADSVKGRFTISRDNSKNTLYLQMSSLGPEDTAVYYCAKSLSGTYWGYGMDVWGQGTTVTVS
VL: B1 VL with R27Q, S28N, N30S, I75V, S85T, N93R
notes: Purified antibody from clone 2H12
On to B6, for which the Kd in test [1] was 0.0779 nM; in test [3], 0.0697 nM. The IC50 in the test with penta-his-tagged hRANKL was determined as 0.045 nM; in test [4], 0.15 nM. In addition, the “IC50 … in HK293/RANK/NFκB-luc-eGFP cells” value in test [2] stood at 0.051 nM.

B7: H4H006P (antibody, V domains shown)
VH: B1 VH with T30G, T56N, Q76K, T78M, V111G
VL: B1 VL with R27Q, N30S, S31N, S53N, E55Q, S85T
notes: Purified antibody from clone 2E11
Turning to B7, the Kd in test [1] was 0.044 nM; in test [3], 0.172 nM. In addition, the figures for the IC50 (in the test with penta-his-tagged hRANKL; in test [4]) were 0.085 nM and 0.42 nM, respectively. The “IC50 … in HK293/RANK/NFκB-luc-eGFP cells” value in test [2] worked out at 0.08 nM.

B8: 2G10 (antibody, V domains shown)
VH: B2 VH with E6Q, Y32F, I34M, D42G, V50I, T56R, G61A, T75S, T88A
VL: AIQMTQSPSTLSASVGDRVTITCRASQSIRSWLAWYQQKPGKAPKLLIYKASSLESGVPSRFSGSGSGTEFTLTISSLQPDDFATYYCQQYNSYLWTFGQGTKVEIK
notes: From direct isolation of splenocytes; captured on anti-hFc; also called H4H008N
The molecule B8 came in with a Kd in test [5] of 0.028 nM.

B9: 1F8 (antibody, V domains shown)
VH: B2 VH with E6Q, S30T, I34M, G61V, T75S, K76Q, T88A, S99C
VL: B1 VL with D1A
notes: From direct isolation of splenocytes; captured on anti-hFc; also called H4H002N
Molecule B9 displayed a Kd in test [5] of 0.00785 nM.

B10: H4H009G (antibody, V domains shown)
VH: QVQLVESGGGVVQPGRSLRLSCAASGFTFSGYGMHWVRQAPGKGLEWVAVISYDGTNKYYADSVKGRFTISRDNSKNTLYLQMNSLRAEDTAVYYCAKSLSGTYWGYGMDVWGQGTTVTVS
VL: B1 VL with R27Q, S28N, N30G, S31N, S85T, Q90R, N93S
notes: as for B5
For B10, the Kd in test [1] was 0.0424 nM; in test [3], 0.198 nM. The IC50 in the test with penta-his-tagged hRANKL turned out to be 0.065 nM; in test [4] it was 0.875 nM. Moreover, the “IC50 … in HK293/RANK/NFκB-luc-eGFP cells” value in test [2] is 0.102 nM.

B11: H4H007P (antibody, V domains shown)
VH: B1 VH with T30S, D42G, K43M, T56I, V61A, Q76K, Y80F, V93L
VL: B1 VL with R27Q, N30S, Q38L, S63G, S85T, Q90H, N93S
notes: Purified antibody from clone 2E12
On to B11, for which the Kd in test [1] is 0.0578 nM; in test [3] it was 0.335 nM. For the same molecule, the IC50 worked out at 0.335 nM with penta-his-tagged hRANKL and 2.76 nM in test [4]. Further, in test [2], the “IC50 … in HK293/RANK/NFκB-luc-eGFP cells” value was 0.452 nM.

B12: H4H005P (antibody, V domains shown)
VH: B1 VH with Q13H, R19T, T30S, D42G, T56I, V61A, Q76K, V93I, T103S, Y107F
VL: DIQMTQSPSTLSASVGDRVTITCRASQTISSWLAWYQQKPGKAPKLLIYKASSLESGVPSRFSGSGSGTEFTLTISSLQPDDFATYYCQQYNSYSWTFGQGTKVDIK
notes: Purified antibody from clone 2E10
Take B12: the Kd in test [1] worked out at 0.0453 nM; in test [3], 0.601 nM. Further, the IC50 with penta-his-tagged hRANKL was 1.16 nM; in test [4], 4.32 nM. Further, the “IC50 … in HK293/RANK/NFκB-luc-eGFP cells” value in test [2] was found to be 1.17 nM.

B13: 2E12 (antibody, V domains shown)
VH: B4 VH with H13Q, T19R, K43M, Y80F, I93L, S103T, F107Y
VL: B1 VL with D1A, R27Q, N30S, Q38L, S63G, S85T, Q90H, N93S
notes: From direct isolation of splenocytes; captured on anti-hFc; also called H4H007N
For B13, in test [5], binding was put at a Kd of 0.0957 nM.

B14: H4H005G (antibody, V domains shown)
VH: B1 VH with T30S, D42G, T56I, V61A, Q76K, T103S, Y107F
VL: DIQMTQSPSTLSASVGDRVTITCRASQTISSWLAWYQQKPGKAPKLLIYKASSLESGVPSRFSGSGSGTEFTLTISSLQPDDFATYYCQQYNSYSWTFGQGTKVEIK
notes: as for B12
Turning to B14, the values for the Kd in test [1] and in test [3] were 0.0241 nM and 0.0762 nM, respectively. Also, the IC50 came to 3.13 nM with penta-his-tagged hRANKL and 9.59 nM in test [4]. In addition, the “IC50 … in HK293/RANK/NFκB-luc-eGFP cells” value in test [2] worked out at 1.06 nM.

B15: H4H006G (antibody, V domains shown)
VH: B1 VH with T30G, D42G, T56N, V61A, Q76K, V111G
VL: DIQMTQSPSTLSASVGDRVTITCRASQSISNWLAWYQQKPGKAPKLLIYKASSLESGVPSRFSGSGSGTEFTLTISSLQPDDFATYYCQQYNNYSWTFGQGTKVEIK
notes: as for B7
For B15, the values for the Kd in test [1] and in test [3] were 0.0415 nM and 0.265 nM, respectively. Moreover, the figures for the IC50 (in the test with penta-his-tagged hRANKL; in test [4]) were 0.195 nM and 1.24 nM, respectively. Moreover, in test [2], the “IC50 … in HK293/RANK/NFκB-luc-eGFP cells” value turned out to be 0.171 nM.

B16: 2E11 (antibody, V domains shown)
VH: B2 VH with E6Q, S30G, I34M, T56N, G61V, T75S, T78M, T88A, S99C, V111G
VL: B1 VL with R27Q, N30S, S31N, S53N, E55Q, S85T
notes: From direct isolation of splenocytes; captured on anti-hFc; also called H4H006N
B16 yielded a Kd in test [5] of 0.016 nM.

These data come from US20120114665A1 (Regeneron, published 2012).
